Results from US20240327505A1 (published 2024).

Target: SARS-CoV-2 spike receptor-binding domain (RBD) protein (SARS-CoV-2, UniProt P0DTC2 319-541)
Assay: BLI

B1: AB-009620 (antibody, V domains shown)
VH: QITLKESGPTLVKPTQTLTLTCTFSGFSLSTSGVGVGWIRQPPGKALEWLALIYWDDDKRYSPSLKSRLTITKDTSKNQVVLTMTNMDPVDTATYYCAHHEVATVFDYWGQGTLVTVSS
VL: QSALTQPASVSGSPGQSITISCTGTSSDVGAYNYVSWYQQHPGKAPKLMIYEVSNRPSGVSNRFSGSKSGNTASLTISGLQAEDEADYYCSSYTSSSTVFGGGTKLTVL
- Kd: 5.99 nM
